Earlier results, collected in article PMC10083361.

Biological target: TRAF2 (Homo sapiens) (UniProt Q12933)
Sequence (Q12933 2-501): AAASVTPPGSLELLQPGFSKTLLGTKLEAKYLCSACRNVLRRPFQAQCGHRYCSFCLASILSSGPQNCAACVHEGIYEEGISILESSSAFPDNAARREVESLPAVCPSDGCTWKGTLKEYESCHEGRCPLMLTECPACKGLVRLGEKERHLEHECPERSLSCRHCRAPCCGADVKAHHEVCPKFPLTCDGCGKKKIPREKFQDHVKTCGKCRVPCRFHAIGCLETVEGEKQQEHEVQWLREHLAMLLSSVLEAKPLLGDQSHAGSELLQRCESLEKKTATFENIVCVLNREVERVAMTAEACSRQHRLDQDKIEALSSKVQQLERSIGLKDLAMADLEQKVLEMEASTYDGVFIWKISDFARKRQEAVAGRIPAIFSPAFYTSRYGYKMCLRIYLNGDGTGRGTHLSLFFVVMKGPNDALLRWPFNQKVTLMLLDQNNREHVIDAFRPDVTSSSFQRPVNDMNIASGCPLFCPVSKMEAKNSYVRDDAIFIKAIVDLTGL

4-1BB, sequence (Q07011 24-255): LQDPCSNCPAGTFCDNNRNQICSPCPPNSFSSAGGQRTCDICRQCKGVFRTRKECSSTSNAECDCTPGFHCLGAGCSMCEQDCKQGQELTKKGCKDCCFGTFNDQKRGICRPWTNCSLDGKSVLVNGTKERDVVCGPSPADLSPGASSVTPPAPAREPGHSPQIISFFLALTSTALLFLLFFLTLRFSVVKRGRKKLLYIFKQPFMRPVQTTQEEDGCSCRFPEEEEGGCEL

4-1BB (from UniProt Q07011)
Kd: 1000 µM
